Here are results for seven sequences from the DeepSol protein solubility set.

A short description of this series: soluble on expression in E. coli; label from the status in PepcDB or PDB records.
Consider “MRPPSELLDIISKLAELDPLVRKGAVRQLSSKQEELSDNELNTYVIERLISGCASARAAVRLGYTTALGTILMTKAGESWELDKILAVADKKMDLAEKTVGTGHAIGHYLILVTYCQTRKLKEAEATKIVEHSKKIRDFAPSLAFSQINLLCSLATKTKESVFQKSVSPAIEMNLEGLSSQFTPENVYLALRLRNSHSTVVAKYAKFVKKDGSIQFSDDQYPKILAALKRCDFATVQVFLPLLIKASVESSGFDKMYLKVLEPWALSSNETKVFDRILTIVTQFFDFGGDVKSIVVVFTKEVLNRMETATRGKGQFRLMSKKVDDFAAFIQSKLSELRDEEAYTALKELEKCGNVDKACGTGLTTALLSNLGKKQISVWIKENLSNQDEVRKIVSAFSNWDEKSRITVLSALLSQKATETSQSVVTSIIDSLFYVKTRAGEFASIQISEKNEEVLRQLVVAVQGEEEVKKAEKSIGKSKLRKKSLQILWYVTRLWSRIAASSVDSAAYDSDSSEILAIAKNEADGNNSLVFVDLLLSILSREQKFHRTPTAFAFVHAIPTLESKDLCHIVETAMMSEAELAGNDDEDMEDEEGMPFDESEIPSGNGDDEASDSDDDDEEEDDDEGNEAVDQELLDKLNAALGDAAPRDSSSDVEMDDLDDEAMQKMDERLAAAFKAIAPKAGKDKKRSAKSVEALKMKIADLLLIAISSKELAEQSKIKLVVPLLKWAKVDAKTHDKVAQKVLELVNIVVKMKFTDVSEKDALQLLKQVLDEAQTTTNILIIDTVARCVTFVLKISSRDGKSMSAGVKTEFQSLFENYLKNVEGKVPSNFVIQPIADLPLLFVDQLGMLIDAGFDEENRIFKRTEILGAIAMIFTKQVLQETNIKGAIIKKIGKLAAAYFQKVVDSDKSELKPRLFGTVLQLILKVTVCIQNDEKHVDALRESLEYVIQKMFEGEVFIQLKKINPTCHHIIGKSIAGAFTSIKKSLDIEN”, for which the “soluble on expression in E. coli” value is given as “not soluble”. As for “MILGTPKADWLAEFPRLADLIALRPSEWFNPAIAPSAEALADVGLGAADVADASARLQRFAPLIARLFPETAASGGIIESDLVEVATFHDALRQHYAAELPGRLWLKRDSHLPISGSIKARGGIYEVLAHAERLALEHGLVGLDDDYSRLAEADCRAFFARHRIAVGSTGNLGLSIGIIGAALGFQASVHMSADARQWKKDKLRAHGVTVVEYASDYSVAVEQGRREAAGDPYTHFVDDENSRDLFLGYAVAAERLRGQLDAAGIRVDSEHPLFVHLPCGVGGGPGGVAFGLKLAFGDAVHCLFAEPTHSPCMFLGVYTGRHEQVSVQDFGIDNRTAADGLAVGRPSGFVGRAMQRLLDGYYTVDDDELFRLLALLERSQGIRLEPSALAGATGIARVTREPQGYRERMGLTSARLANATHLVWATGGGMVPETEMRAYLERGRSLL”, the “soluble on expression in E. coli” value is given as “not soluble”. The entry for “MVKFIHCADLHLDSPFKSKSYLSPNIFEDVQKSAYESFKNIVDLALKQEVDFIIIAGDLFDSENRTLRAEVFLNEQFERLRKEQIFVYICHGNHDPLTSKITSQWPNNVSVFSNQVETYQAITKSGETIYIHGFSYQNDASYENKIDAYPSSQGQKGIHIGVLHGTYSKSSVKDRYTEFRLEDLNQRLYHYWALGHIHQREQLSDMPVINYPGNIQGRHFNELGEKGCLLVEGDHLKLTTQFYPTQFIKFEEATIETDHTSKQGLYDVIQSFKDKVRTEGKSFYRLNVRINSEDIIAPQDLIQLKEMITEFEENENQFVFIEDLNLQYVQNDEMPIVKEFSPELLDDASLFDSAMTDLYLNPRASKFLDDYNEFDKVELVNHAERLLKDEMRGEQNDN” is “not soluble”; for “MGSDKIHHHHHHMKMSWNHQYTNYGSIADDNGDEEKAENSEGAAAEKVEKQHDDDGVVVHEETDGVASSRSSHHDKQKPGETKKSGDGKMDDDDIITTARSSSRRICGSAASSSDSETADDAPLLPDEGPSHAVRLEMPGDKPASPHDRFPKTPLKTL” it is “not soluble”. Consider “MSAQVSLELHHRISQFLFHEASLLDDWKFRDWLAQLDEEIRYTMRTTVNAQTRDRRKGVQPPTTWIFNDTKDQLERRIARLETGMAWAEEPPSRTRHLISNCQISETDIPNVFAVRVNYLLYRAQKERDETFYVGTRFDKVRRLEDDNWRLLERDIVLDQAVITSHNLSVLF”, for which the “soluble on expression in E. coli” value is “soluble”.

For “MLADPAQPEHVFIVEDSRGATELKLYKSHYTIGKADSCDIRLHSIYASRQHATLVRFLTENGEVRYRLIDGDPETSRRSANGTYVNNRSITECDLKHYDQILFGADVKATYFYLSPQFRSLEHHHHHH”, the “soluble on expression in E. coli” value is recorded as “not soluble”. The entry for “EVVPLAFTKAATQPAPGVKPYNALQVAGRDIYIREGCYNCHSQMIRPFRAETERYGHYSVAGESVYDHPFQWGSKRTGPDLARVGGRYSDEWHRIHLLNPRDVVPESNMPAFPWLARNKVDVDATVANMKALRKVGTPYSDEEIAKAPEALANKSELDAVVAYLQGLGLALKNVR” is “not soluble”.
